Measured values published in publication PMC2172684 (The Journal of Cell Biology, 2003).
Where two headings read alike, the source gives them in different places.

B1: importin β I178A/F217A/Y255A/I263R (m-N) (natural protein)
chain: MELITILEKTVSPDRLELEAAQKFLERAAVENLPTFLVELSRVLANPGNSQVARVAAGLQIKNSLTSKDPDIKAQYQQRWLAIDANARREVKNYVLQTLGTETYRPSSASQCVAGIACAEIPVNQWPELIPQLVANVTNPNSTEHMKESTLEAIGYICQDIDPEQLQDKSNEILTAIAQGMRKEEPSNNVKLAATNALLNSLEFTKANFDKESERHAIMQVVCEATQCPDTRVRVAALQNLVKIMSLYYQYMETAMGPALFARTIEAMKSDIDEVALQGIEFWSNVCDEEMDLAIEASEAAEQGRPPEHTSKFYAKGALQYLVPILTQTLTKQDENDDDDDWNPCKAAGVCLMLLATCCEDDIVPHVLPFIKEHIKNPDWRYRDAAVMAFGCILEGPEPSQLKPLVIQAMPTLIELMKDPSVVVRDTAAWTVGRICELLPEAAINDVYLAPLLQCLIEGLSAEPRVASNVCWAFSSLAEAAYEAADVADDQEEPATYCLSSSFELIVQKLLETTDRPDGHQNNLRSSAYESLMEIVKNSAKDCYPAVQKTTLVIMERLQQVLQMESHIQSTSDRIQFNDLQSLLCATLQNVLRKVQHQDALQISDVVMASLLRMFQSTAGSGGVQEDALMAVSTLVEVLGGEFLKYMEAFKPFLGIGLKNYAEYQVCLAAVGLVGDLCRALQSNIIPFCDEVMQLLLENLGNENVHRSVKPQILSVFGDIALAIGGEFKKYLEVVLNTLQQASQAQVDKSDYDMVDYLNELRESCLEAYTGIVQGLKGDQENVHPDVMLVQPRVEFILSFIDHIAGDEDHTDGVVACAAGLIGDLCTAFGKDVLKLVEARPMIHELLTEGRRSKTNKAKTLATWATKELRKLKNQA

What was measured:
Assay in all cases: ELISA
[1] = molecular target: importin β L612D/F688A (m-C) (human, UniProt Q14974 1-876, L612D | F688A)
[2] = molecular target: B1
wild-type importin β [3] = molecular target: T1, wild-type importin β (human, UniProt Q14974 1-876)
importin β F217A = importin β F217A (human, UniProt Q14974 1-876, F217A)
importin β I263R = importin β I263R (human, UniProt Q14974 1-876, I263R)
importin β Y255A = importin β Y255A (human, UniProt Q14974 1-876, Y255A)
importin β F217A/Y255A = importin β F217A/Y255A (human, UniProt Q14974 1-876, F217A | Y255A)
importin β I178A = importin β I178A (human, UniProt Q14974 1-876, I178A)
[4] = molecular target: B1; remark: listed apart in the source
importin β I178D/Y255A = importin β I178D/Y255A (human, UniProt Q14974 1-876, I178D | Y255A)
importin β E214A = importin β E214A (human, UniProt Q14974 1-876, E214A)
wild-type importin β [5] = molecular target: T1, wild-type importin β; remark: listed apart in the source
importin β I178A/E214A = importin β I178A/E214A (human, UniProt Q14974 1-876, I178A | E214A)
importin β I178D = importin β I178D (human, UniProt Q14974 1-876, I178D)
GST–RanGTP = GST–RanGTP (UniProt P62826 1-216)

Binder	Kd [1] [nM]	Kd [2] [nM]	Kd (wild-type importin β [3]) [nM]	Kd (importin β F217A) [nM]	Kd (importin β I263R) [nM]	Kd (importin β Y255A) [nM]	Kd (importin β F217A/Y255A) [nM]	Kd (importin β I178A) [nM]	Kd [4] [nM]	Kd (importin β I178D/Y255A) [nM]	Kd (importin β E214A) [nM]	Kd (wild-type importin β [5]) [nM]	Kd (importin β I178A/E214A) [nM]	Kd (importin β I178D) [nM]	Kd (GST–RanGTP) [nM]
GST-tagged Nup153 (895–1475) (domain or fragment, UniProt P49790 895-1475, looked up) SNSAASSSFKFGVSSSSSGPSQTLTSTGNFKFGDQGGFKIGVSSDSGSINPMSEGFKFSKPIGDFKFGVSSESKPEEVKKDSKNDNFKFGLSSGLSNPVSLTPFQFGVSNLGQEEKKEELPKSSSAGFSFGTGVINSTPAPANTIVTSENKSSFNLGTIETKSASVAPFTCKTSEAKKEEMPATKGGFSFGNVEPASLPSASVFVLGRTEEKQQEPVTSTSLVFGKKADNEEPKCQPVFSFGNSEQTKDENSSKSTFSFSMTKPSEKESEQPAKATFAFGAQTSTTADQGAAKPVFSFLNNSSSSSSTPATSAGGGIFGSSTSSSNPPVATFVFGQSSNPVSSSAFGNTAESSTSQSLLFSQDSKLATTSSTGTAVTPFVFGPGASSNNTTTSGFGFGATTTSSSAGSSFVFGTGPSAPSASPAFGANQTPTFGQSQGASQPNPPGFGSISSSTALFPTGSQPAPPTFGTVSSSSQPPVFGQQPSQSAFGSGTTPNSSSAFQFGSSTTNFNFTNNSPSGVFTFGANSSTPAASAQPSGSGGFPFNQSPAAFTVGSNGKNVFSSSGTSFSGRKIKTAVRRRK	1.2 ± 0.1	91.3 ± 11.8	1 ± 0.1	2.1 ± 0.2	2.5 ± 0.3	3.5 ± 0.3	32.4 ± 5.3	1.1 ± 0.1	99 ± 15.2	68.3 ± 9	1.8 ± 0.1	1.1 ± 0.1	27 ± 4.1	40.1 ± 9.1	–
B1	–	–	–	–	–	–	–	–	–	–	–	–	–	–	3.9 ± 0.4
GST-tagged full-length Nup62 (natural protein, UniProt P17955 1-525, looked up) MSGFNFGGTGAPAGGFTFGTAKTATTTPATGFSFSASGTGTGGFNFGTPSQPAATTPSTSLFSLATQTSTTQTPGFNFGTTPASGGTGFSLGISTPKLSLSSTAATPATANTGSFGLGSSTLTNAISGASTSSQGTAPTGFVFGSSTTSAPSTGTTGFSFTSGSASQPGASGFNIGSVGSLAQPTALSGSPFTPATLATTTAGATQPAAATPTAATTSAGSTLFASIAAAPASSSTTVLSLSAPATTAATPTAGTLGFSLKAPGAAPGASTTSTTTTTTTTTTTASTSSSTTTTGFALSLKPLVPAGPSSVAATALPASSTAVGTTTGPAMTYAQLESLINKWSLELEDQERHFLQQATQVNAWDRTLIENGEKITSLHREVEKVKLDQKRLDQELDFILSQQKELEDLLSPLEESVKEQSGTIYLQHADEEREKTYKLAENIDAQLKRMAQDLKDIIEHLNMAGGPADTSDPLQQICKILNAHMDSLQWVDQSSALLQRRVEEASRVCESRRKEQERSLRIAFD	–	–	–	227 ± 33.3	–	–	–	89 ± 9	–	–	770 ± 123	77.3 ± 11.6	–	–	–
